Measured values: the RNAGym collection of RNA variant scans (doi:10.7554/elife.90254)

B1: OR4K15 (parent)
chain: GUUAACGGUCAUAGGCCAUGGAAACUAGGAGCACCAUUUCGCUGCCAGUGAAGAAAUGAACAAAGAAAAUCUGGGCCAGGCAGGCAUCAAAAGAAAUAGUCUUGCGCUCAACCAGAAAGUCUGUAAUCAUUUUAAGGGUA

Variants of: B1
Test: self-cleavage, relative activity (ratio to wild type); higher = more cleavage; in vitro, sequencing; the parent is a self-cleaving ribozyme
For A89U, the self-cleavage was 1.65.
Variant G1C A111G has a self-cleavage of 0.01.
With U39C A54G the self-cleavage was 0.69.
A33U U39A gave a self-cleavage of 1.4.
Variant A30G G106U has a self-cleavage of 0.04.
U9C A98U showed a self-cleavage of 1.32.
In the case of A18G U38C, the self-cleavage is reported as 0.46.
U49G A116G gave a self-cleavage of 0.64.
Variant A22G U102A has a self-cleavage of 0.32.
For C32G A54U, the self-cleavage was 1.14.
A36U A98U gave a self-cleavage of 2.42.
Work on U3C G28U yielded a self-cleavage of 2.64.
U108C A110C showed a self-cleavage of 0.
In the case of U9C A63U, the self-cleavage is reported as 1.83.
U2C A18G showed a self-cleavage of 0.6.
A51G A91U showed a self-cleavage of 1.61.
For A90G A94G, the self-cleavage was 1.64.
G31A U132C gave a self-cleavage of 1.72.
U12C G44A gave a self-cleavage of 2.15.
A24G A33G gave a self-cleavage of 0.85.
C77A gave a self-cleavage of 0.76.
G74A A140U showed a self-cleavage of 0.22.
A129G U139C showed a self-cleavage of 0.85.
Work on A78G G138A yielded a self-cleavage of 0.2.
With A18G A118C the self-cleavage was 0.27.
A66G U133C gave a self-cleavage of 1.82.
Work on G80A U102C yielded a self-cleavage of 0.42.
For U9A A114G, the self-cleavage was 0.33.
Work on A55G U57C yielded a self-cleavage of 1.13.
Work on U9C U127A yielded a self-cleavage of 2.67.
Work on G75A A95G yielded a self-cleavage of 0.05.
Work on G65A U124A yielded a self-cleavage of 1.36.
For A22G G31U, the self-cleavage was 0.75.
A54U A135U showed a self-cleavage of 2.01.
With A52G U87C the self-cleavage was 1.35.
U2C A36G showed a self-cleavage of 1.25.
Work on G79A A129C yielded a self-cleavage of 0.05.
In the case of A96G U124A, the self-cleavage is reported as 0.94.
In the case of A47U A67G, the self-cleavage is reported as 1.23.
A13U A96G gave a self-cleavage of 1.14.
For A69U A111G, the self-cleavage was 0.04.
C16U A18U gave a self-cleavage of 1.52.
In the case of A59G A82U, the self-cleavage is reported as 0.34.
With G50A A63G the self-cleavage was 1.21.
G99A U103C showed a self-cleavage of 0.07.
A116C U127C gave a self-cleavage of 0.03.
U124C U127C showed a self-cleavage of 0.84.
For G80U A86U, the self-cleavage was 0.23.
With A13U A114U the self-cleavage was 0.07.
G50A G138A showed a self-cleavage of 1.51.
For A78U G93U, the self-cleavage was 0.53.
With A126U U132C the self-cleavage was 1.21.
Variant A51G G83U has a self-cleavage of 0.7.
G15U A126U gave a self-cleavage of 0.79.
G14U A135C showed a self-cleavage of 1.41.
Work on A47U U87C yielded a self-cleavage of 1.34.
G1U showed a self-cleavage of 1.07.
With C6U A89G the self-cleavage was 1.13.
A94G U102C gave a self-cleavage of 1.87.
For A13G U132C, the self-cleavage was 0.41.
C71U A95G showed a self-cleavage of 0.97.
C71U A95U showed a self-cleavage of 0.5.
With A95G A140U the self-cleavage was 2.09.
For U57C G84A, the self-cleavage was 1.76.
Variant C40A A78G has a self-cleavage of 0.32.
For U37C A110C, the self-cleavage was 0.1.
A36G A140G showed a self-cleavage of 1.31.
Variant U39C U122A has a self-cleavage of 1.58.
Work on A92G A96G yielded a self-cleavage of 0.99.
Variant A23G A98U has a self-cleavage of 0.92.
Variant U57A U127A has a self-cleavage of 1.95.
In the case of A5G G80A, the self-cleavage is reported as 0.43.
With U70C U87G the self-cleavage was 0.04.
Work on A33U U103C yielded a self-cleavage of 0.84.
Work on A62C A125G yielded a self-cleavage of 0.58.
Variant U9C C76A has a self-cleavage of 0.07.
For A78U U139C, the self-cleavage was 0.28.
Work on A54G A140G yielded a self-cleavage of 2.22.
Variant U19A U102C has a self-cleavage of 1.65.
Variant A62G A68U has a self-cleavage of 1.33.
U102A A135G gave a self-cleavage of 1.02.
G8A A117G showed a self-cleavage of 2.27.
Variant C16G U49C has a self-cleavage of 0.92.
For A47G A91G, the self-cleavage was 0.69.
Work on U19C A78G yielded a self-cleavage of 0.29.
For A98U U102C, the self-cleavage was 2.78.
A33C U102C gave a self-cleavage of 2.22.
For G7A A82U, the self-cleavage was 0.14.
Work on U2C A5U yielded a self-cleavage of 1.16.
In the case of A95G U108C, the self-cleavage is reported as 0.01.
C40A U108A gave a self-cleavage of 0.
With A23G U87A the self-cleavage was 0.94.
Work on A78G U87A yielded a self-cleavage of 0.08.
U39C G50A gave a self-cleavage of 1.2.
A89G A94U gave a self-cleavage of 0.86.
Work on A62G A96U yielded a self-cleavage of 1.26.
With A94C A126G the self-cleavage was 0.79.
For U122C U131A, the self-cleavage was 1.25.
C128A A134G showed a self-cleavage of 1.63.
U9A G80U showed a self-cleavage of 0.2.
In the case of A56G U103A, the self-cleavage is reported as 0.04.
With G79U U132C the self-cleavage was 0.09.
For A52G A59G, the self-cleavage was 1.13.
With A90G U131C the self-cleavage was 0.31.
With A47G A52C the self-cleavage was 0.5.
A24G U39C showed a self-cleavage of 1.35.
For U9A U122C, the self-cleavage was 0.88.
Work on A89G U97A yielded a self-cleavage of 0.88.
Work on U3C G119A yielded a self-cleavage of 1.44.
Variant U3C G119U has a self-cleavage of 0.99.
For A30C A33G, the self-cleavage was 1.9.
Variant U120A A126G has a self-cleavage of 1.64.
With A64U A134G the self-cleavage was 1.44.
Variant U72A A82U has a self-cleavage of 0.15.
G106U U127C showed a self-cleavage of 0.01.
In the case of A62G A67U, the self-cleavage is reported as 1.82.
U72C A95U gave a self-cleavage of 0.35.
Variant U19A A140G has a self-cleavage of 1.75.
Variant A30G A96U has a self-cleavage of 1.72.
For A5C A117U, the self-cleavage was 0.56.
Work on U130C U131C yielded a self-cleavage of 1.01.
Work on A69G A92G yielded a self-cleavage of 0.72.
With A98G U102C the self-cleavage was 2.44.
Work on U43A A51G yielded a self-cleavage of 1.64.
Variant U43C A95U has a self-cleavage of 0.49.
In the case of A11G A90G, the self-cleavage is reported as 1.04.
With A56G A129G the self-cleavage was 1.45.
Variant A36C U130C has a self-cleavage of 2.1.
Work on U3C A69G yielded a self-cleavage of 1.6.
Variant U9A A67U has a self-cleavage of 0.67.
For A59G A111U, the self-cleavage was 0.07.
Work on U38C U130C yielded a self-cleavage of 1.5.
U87G A117G gave a self-cleavage of 0.46.
Variant A116G has a self-cleavage of 0.47.
In the case of U3C A125U, the self-cleavage is reported as 0.83.
In the case of U70A U72A, the self-cleavage is reported as 0.24.
With A24G A56U the self-cleavage was 0.97.
G21A G138A showed a self-cleavage of 0.84.
With A23U A118G the self-cleavage was 0.66.
For G7U A116U, the self-cleavage was 0.38.
With U2G A59G the self-cleavage was 0.81.
A69U A95G gave a self-cleavage of 2.37.
In the case of A18G C109A, the self-cleavage is reported as 0.34.
With U39A A60G the self-cleavage was 0.99.
U39G U132C gave a self-cleavage of 0.94.
Variant U122C A125G has a self-cleavage of 0.38.
With U97C C113A the self-cleavage was 0.04.
Variant U97C U132A has a self-cleavage of 1.28.
Variant A33G U103C has a self-cleavage of 0.4.
For A24G A95G, the self-cleavage was 1.71.
In the case of A59U A66G, the self-cleavage is reported as 1.31.
Variant G75A U122A has a self-cleavage of 0.17.
In the case of U38C A92U, the self-cleavage is reported as 1.63.
Variant U100A U130C has a self-cleavage of 0.09.
In the case of U9C A66G, the self-cleavage is reported as 0.9.
For U49C A118G, the self-cleavage was 0.35.
A5G G7U gave a self-cleavage of 1.05.
In the case of A86U A117U, the self-cleavage is reported as 1.56.
With U9C A47U the self-cleavage was 1.1.
With U3C G74U the self-cleavage was 0.15.
For A63G A86C, the self-cleavage was 1.21.
For A63G A86G, the self-cleavage was 1.47.
Work on A27U A64U yielded a self-cleavage of 2.21.
Work on A24G U124C yielded a self-cleavage of 0.73.
For A89U U102A, the self-cleavage was 0.98.
For U2C A134U, the self-cleavage was 0.69.
Variant A23C A27G has a self-cleavage of 0.28.
